Measurements: patent US20210309984

Tested on: MUC5AC within type II porcine stomach mucin extract

| Substance | immunoblot of MUC5AC degradation in type II mucin extract | immunoblot of MUC5AC degradation, in the presence of EDTA |
| --- | --- | --- |
| SsIE (residues 90-1520), E. coli strain W | MUC5AC was processed into a different ˜60 kDa species | no activity was detected |
| ChiA C-domain (ChiA-CTD: residues 419-762), wild-type |  | no activity was detected |
